{
  "source": "paper PMC4020579",
  "about": "(Biochemistry, 2014)",
  "key": {"[1]": {"assay": "Solubility of RPA32C in crystallization screening", "assay_type": "physicochemical", "conditions": "all sparse matrix conditions examined, standard buffer conditions"}, "[2]": {"molecular_target": "RPA32C, the optimized RPA32_(202–270) construct (C-terminal winged-helix domain of the RPA 32 kDa subunit) (UniProt P15927 202-270)", "sequence (P15927 202-270)": "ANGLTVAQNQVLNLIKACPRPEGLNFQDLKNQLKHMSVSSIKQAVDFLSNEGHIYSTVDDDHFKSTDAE", "assay": "NMR titration"}, "[3]": {"molecular_target": "RPA32_(172–270), the previously reported RPA32C construct of the replication protein A 32 kDa subunit (UniProt P15927 172-270)", "sequence (P15927 172-270)": "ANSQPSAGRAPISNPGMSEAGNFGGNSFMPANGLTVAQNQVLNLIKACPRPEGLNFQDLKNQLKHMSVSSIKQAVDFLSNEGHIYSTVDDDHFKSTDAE", "assay": "ITC"}},
  "data": [
    {"molecule": "RPA32C: optimized C-terminal winged-helix domain construct of the RPA 32 kDa subunit, residues 202–270", "values": [
      {"measurement": "concentration at which soluble", "setting": "[1]", "value": "≥ 40000", "unit": "µg/mL"}
    ]},
    {"molecule": "EEQRKKIEENRQKALARRAEKLLAEQ (peptide, UniProt Q9NZC9 7-32, looked up)", "note": "[SMARCAL1_(7–32) peptide]", "values": [
      {"measurement": "binding result", "setting": "[2]", "value": "binds"}
    ]},
    {"molecule": "MSLPLTEEQRKKIEENRQKALARRAEKLLAEQ (peptide, UniProt Q9NZC9 1-32, looked up)", "note": "[SMARCAL1_(1–32), SMARCAL1 residues 1–32 containing the RPA binding motif (RBM)]", "values": [
      {"measurement": "Kd", "setting": "[3]", "value": "2500 ± 100", "unit": "nM"}
    ]}
  ]
}
